In US20170369576A1:

Columns and labels:
[1] = target: chimpanzee CD4 on PBMC (chimpanzee) (UniProt P16004); experiment: FACS of chimp X282 PBMC stained with Leu3a-PE only
[2] = target: chimpanzee CD4 on PBMC (chimpanzee) (UniProt P16004); experiment: FACS of chimp X301 PBMC stained with Leu3a-PE only
[3] = target: chimpanzee CD4 on PBMC (chimpanzee) (UniProt P16004); experiment: FACS of chimp X282 PBMC, sequential staining: 1st Leu3a binding, 2nd B4 exposure
[4] = target: chimpanzee CD4 on PBMC (chimpanzee) (UniProt P16004); experiment: FACS of chimp X301 PBMC, sequential staining: 1st Leu3a binding, 2nd B4 exposure
[5] = target: chimpanzee CD4 on PBMC (chimpanzee) (UniProt P16004); experiment: FACS of chimp X282 PBMC, sequential staining: 1st B4 binding, 2nd Leu3a exposure; competitor B4 prebound
[6] = target: chimpanzee CD4 on PBMC (chimpanzee) (UniProt P16004); experiment: FACS of chimp X301 PBMC, sequential staining: 1st B4 binding, 2nd Leu3a exposure; competitor B4 prebound
[7] = target: HIV-1 envelope glycoprotein of isolate 92TH594 (R5/X4), on pseudotype virus (HIV-1 (92TH594)); experiment: cell-based or functional assay
[8] = target: HIV-1 envelope glycoprotein of isolate HXB2 (X4), on pseudotype virus (HIV-1 (HXB2)) (UniProt P04578); experiment: cell-based or functional assay
[9] = target: HIV-1 envelope glycoprotein of isolate JRCSF (R5), on pseudotype virus (HIV-1 (JRCSF)); experiment: cell-based or functional assay

chimpanzee CD4 on PBMC (chimpanzee), sequence (P16004 26-458): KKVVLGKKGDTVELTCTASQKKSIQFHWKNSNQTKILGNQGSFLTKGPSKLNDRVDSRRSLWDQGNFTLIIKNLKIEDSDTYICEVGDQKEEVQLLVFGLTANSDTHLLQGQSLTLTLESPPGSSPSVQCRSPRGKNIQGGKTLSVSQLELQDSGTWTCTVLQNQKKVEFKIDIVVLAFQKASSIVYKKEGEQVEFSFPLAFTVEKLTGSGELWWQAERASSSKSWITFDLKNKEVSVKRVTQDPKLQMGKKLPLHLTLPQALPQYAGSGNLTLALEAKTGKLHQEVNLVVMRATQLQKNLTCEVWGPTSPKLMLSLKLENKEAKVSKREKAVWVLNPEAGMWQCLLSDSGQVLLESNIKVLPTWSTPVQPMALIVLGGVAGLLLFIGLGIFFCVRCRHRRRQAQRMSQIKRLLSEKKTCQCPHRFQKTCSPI

percent positive PBMC (single label control, Leu3a+) [1] [%]	percent positive PBMC (single label control, Leu3a+) [2] [%]	percent positive PBMC (Leu3a+ B4-) [3] [%]	percent positive PBMC (Leu3a+ B4-) [4] [%]	percent positive PBMC (Leu3a+ B4+) [5] [%]	percent positive PBMC (Leu3a+ B4-) [5] [%]	percent positive PBMC (Leu3a+ B4+) [6] [%]	percent positive PBMC (Leu3a+ B4-) [6] [%]	Substance	IC50 of HIV entry inhibition, pseudotype virus 92TH594 (R5/X4), U87-CD4+/CCR5+/CXCR4+ cells [7] [µg/mL]	IC50 of HIV entry inhibition, pseudotype virus HXB2 (X4), U87-CD4+/CCR5+/CXCR4+ cells [8] [µg/mL]	IC50 of HIV entry inhibition, pseudotype virus JRCSF (R5), U87-CD4+/CCR5+/CXCR4+ cells [9] [µg/mL]
25.5	44	0.1	0.3	1.2	0	3	0	anti-CD4 monoclonal antibody Leu3a			
								monoclonal neutralizing antibody 2F5	3	0.07	4
								monoclonal neutralizing antibody 2G12	1.3	0.5	0.8
